Assays:
Details in all cases: liposome binding signal on yeast proteome chip, Cy3-streptavidin detection
PI(3,4)P2 liposomes = test: Yeast proteome chip probed with PI(3,4)P2 liposomes
Text: (§1) To identify PI-binding proteins in yeast, liposomes were used as probes because the liposome provides the most relevant physiological condition to assay the interactors. Six types of liposomes were used. Each contains phosphatidylcholine (“PC”) with 1% (w/w) N-(biotinoyl)-1,2-dihexadecanoyl-sn-glycero-3-phosphoethanolamine, triethylammonium salt (biotin DHPE). The biotinylated lipid serves as a label that can be detected by Cy3-streptavidin (21). In addition to PC, the five other liposomes contain either 5% (w/w) PI(3)P, PI(4)P, PI(3,4)P2, PI(4,5)P2, or PI(3,4,5)P3 (FIG. 3A).
(§2) The protein-liposome interaction was assayed as follows. Appropriate amounts of each lipid in chloroform were mixed and dried under nitrogen. The lipid mixture was resuspended in TBS buffer by vortexing. The liposomes were created by sonication. Blocked proteome chips were washed three to five times in PBS buffer, and the extra liquid on the glass surface was removed by tapping the slides vertically on a KIMWIPE™. 200 μl of liposome solution was added to the proteome chip and immediately covered by a hydrophobic plastic cover slip (GRACE BIO-LAB™, USA). After trapped air bubbles were removed, the chip was incubated in a humidity chamber at RT for one hour. To remove the cover slip, the chip was immersed into large volume of PBS buffer (50 ml), so that the slip would float away. The chip was then moved to a second PBS bath (>50 ml) and washed 3×5 min with shaking at RT. After removing extra liquid on the surface of the chip, about 100 μl of Cy3 or Cy5 conjugated streptavidin (PIERCE™, USA; 1:2000 to 1:4000 dilution) was added to the surface and covered by a hydrophobic plastic cover slip (GRACE BIO-LABS™, USA). The chip was incubated for greater than 30 min in the dark at RT. The chip was then washed as described above. To completely remove the liquid on the chip, the chip was spun to dryness at 1500-2000 rpm for 5-10 min at RT.
(§3) • 1. S. Fields, Y. Kohara, D. J. Lockhart, Proc. Natl. Acad. Sci. 96, 8825 (1999); A. Goffeau et al., Science 274, 563 (1996). • 2 P. Ross-Macdonald et al., Nature 402, 413 (1999); J. L., DeRisi, V. R. Iyer, P. O. Brown, Science 278, 680 (1997); E. A. Winzeler et al., Science 285, 901 (1999). P. Uetz et al., Nature 403, 623 (2000); T. Ito et al., Proc. Natl. Acad. Sci. USA. 97, 1143 (2000) • 3 H. Zhu, M. Snyder, Curr. Opin. Chem. Biol. 5, 40 (2001). • 4 M. R. Martzen et al., Science 286, 1153 (1999). • 5 H. Zhu et al., Nat. Genet. 26, 283 (2000). • 6 G. MacBeath, S. L. Schreiber, Science 289, 1760 (2000). • 7 A. Caveman, J. Cell Sci. 113, 3543 (2000). • 8 P. Arenkov et al., Anal. Biochem 278, 123 (2000). • 9 D. A. Mitchell, T. K. Marshall, R. J. Deschenes, Yeast 9, 715 (1993). The expression vector pEGH was created by inserting an RGS-HisX6 epitope tag between the GST gene and the polycloning site of pEG(KG). The yeast ORFs were cloned using the strategy described previously (5), except every step was done in a 96-well format. Plasmid DNAs confirmed by DNA sequencing were reintroduced into both yeast (Y258) and E. coli (DH5a). […] 0.1 mM calcium was present in buffers in all subsequent steps. The chip was washed three times with PBS at RT. Cy3-conjugated streptavidin (Jackson IR, USA) (1:5000 dilution) was added to the chip and incubated for 30 min at RT. After extensive washing, the chip was spun dry and scanned using a microarray scanner; the data was subsequently acquired with the GENEPIX™ array densitometry software (Axon, USA). • 12 S. S. Hook, A. R. Means, Annu. Rev. Pharmacol. Toxicol.41, 471 (2001). • 13 M. S. Cyert, R. Kunisawa, D. Kaim, J. Thorner, Proc. Natl. Acad. Sci. USA 88, 7376 (1991). • 14 D. A. Stirling, K. A. Welch, M. J. Stark, EMBO J. 13, 4329 (1994). • 15 F. Bohl, Kruse, EMBO J. 19, 5514 (2000); E. Bertrand et al., Mol. Cell 2, 437 (1998). • 16 D. C. Winter, E. Y. Choe, R. Li, Proc. Nat. Acad Sci. USA 96, 7288 (1999). • 17 C.

PI(3,4,5)P3 liposomes = test: Yeast proteome chip probed with PI(3,4,5)P3 liposomes
Text: as §1, §2, §3

[1] = tested on: phosphatidylcholine (PC) liposomes; test: Yeast proteome chip probed with PC liposomes
Text: as §1, §2, §3

PI(4)P liposomes = test: Yeast proteome chip probed with PI(4)P liposomes
Text: as §1, §2, §3

PI(4,5)P2 liposomes = test: Yeast proteome chip probed with PI(4,5)P2 liposomes
Text: as §1, §2, §3

B1: RTG3: yeast GST-HisX6 fusion protein on proteome chip (protein, UniProt P38165 1-486, looked up)
Retrograde regulation protein …: MMNNNESEAENQRLLDELMNQTKVLQETLDFSLVTPTPHHNDDYKIHGSAYPGGETPAQQHEKLSYINTHNSNDNNNLMGSQARSNSQTPTASTIYEEAESQSSYLDDMFRTSQGGRPVTQNSISSIGQGPLRSSYSMAYDSPVDRAMNTPLQQQEGLKAELPHDFLFQHGTDDTMYNLTDDLSSSLSSSINSDMMTPNTYSSSFSYNPQSLGPASVSSTYSPKVRSPSSSFRAGSFLSSSFRHGSINTPRTRHTSISSNMTENIGPGSVPKILGGLTSDEKLRRKREFHNAVERRRRELIKQKIKELGQLVPPSLLNYDDLGKQIKPNKGIILDRTVEYLQYLAEILEIQARKKKALLAKIKELEEKKSSVAALSPFTNNHHASSGQNNSENSEERIIDIRSVPNALMNEQNSKAELHNWEPPLYDSVGNHNHAGTMESHPHTNIHEELKEFLSGDLIEAEDNAKLMFGDDNSNPADYLLEFGSG
modifications: GST-His6 tag
notes: yeast GST-HisX6 fusion protein on proteome chip
PI(3,4)P2 liposomes
  PI(3, 4)P2: 0.16
PI(3,4,5)P3 liposomes
  PI(3, 4, 5)P3: −5.29
[1]
  PC: 5.58
PI(4)P liposomes
  PI(4)P: 12.19
PI(4,5)P2 liposomes
  PI(4, 5)P2: 12.41

B2: BPL1: yeast GST-HisX6 fusion protein on proteome chip (protein, UniProt P48445 1-690, looked up)
Biotin--protein ligase: MNVLVYNGPGTTPGSVKHAVESLRDFLEPYYAVSTVNVKVLQTEPWMSKTSAVVFPGGADLPYVQACQPIISRLKHFVSKQGGVFIGFCAGGYFGTSRVEFAQGDPTMEVSGSRDLRFFPGTSRGPAYNGFQYNSEAGARAVKLNLPDGSQFSTYFNGGAVFVDADKFDNVEILATYAEHPDVPSSDSGKGQSENPAAVVLCTVGRGKVLLTGPHPEFNVRFMRKSTDKHFLETVVENLKAQEIMRLKFMRTVLTKTGLNCNNDFNYVRAPNLTPLFMASAPNKRNYLQEMENNLAHHGMHANNVELCSELNAETDSFQFYRGYRASYDAASSSLLHKEPDEVPKTVIFPGVDEDIPPFQYTPNFDMKEYFKYLNVQNTIGSLLLYGEVVTSTSTILNNNKSLLSSIPESTLLHVGTIQVSGRGRGGNTWINPKGVCASTAVVTMPLQSPVTNRNISVVFVQYLSMLAYCKAILSYAPGFSDIPVRIKWPNDLYALSPTYYKRKNLKLVNTGFEHTKLPLGDIEPAYLKISGLLVNTHFINNKYCLLLGCGINLTSDGPTTSLQTWIDILNEERQQLHLDLLPAIKAEKLQALYMNNLEVILKQFINYGAAEILPSYYELWLHSNQIVTLPDHGNTQAMITGITEDYGLLIAKELVSGSSTQFTGNVYNLQPDGNTFDIFKSLIAKKVQS
modifications: GST-HisX6 tag
notes: as for B1
PI(3,4)P2 liposomes
  PI(3, 4)P2: 6.59
PI(3,4,5)P3 liposomes
  PI(3, 4, 5)P3: 8.77
[1]
  PC: 5.28
PI(4)P liposomes
  PI(4)P: 25.26
PI(4,5)P2 liposomes
  PI(4, 5)P2: 22.21

B3: GFA1: yeast GST-HisX6 fusion protein on proteome chip (protein, UniProt P14742 2-717, looked up)
Glutamine--fructose-6-phosphat …: CGIFGYCNYLVERSRGEIIDTLVDGLQRLEYRGYDSTGIAIDGDEADSTFIYKQIGKVSALKEEITKQNPNRDVTFVSHCGIAHTRWATHGRPEQVNCHPQRSDPEDQFVVVHNGIITNFRELKTLLINKGYKFESDTDTECIAKLYLHLYNTNLQNGHDLDFHELTKLVLLELEGSYGLLCKSCHYPNEVIATRKGSPLLIGVKSEKKLKVDFVDVEFPEENAGQPEIPLKSNNKSFGLGPKKAREFEAGSQNANLLPIAANEFNLRHSQSRAFLSEDGSPTPVEFFVSSDAASVVKHTKKVLFLEDDDLAHIYDGELHIHRSRREVGASMTRSIQTLEMELAQIMKGPYDHFMQKEIYEQPESTFNTMRGRIDYENNKVILGGLKAWLPVVRRARRLIMIACGTSYHSCLATRAIFEELSDIPVSVELASDFLDRKCPVFRDDVCVFVSQSGETADTMLALNYCLERGALTVGIVNSVGSSISRVTHCGVHINAGPEIGVASTKAYTSQYIALVMFALSLSDDRVSKIDRRIEIIQGLKLIPGQIKQVLKLEPRIKKLCATELKDQKSLLLLGRGYQFAAALEGALKIKEISYMHSEGVLAGELKHGVLALVDENLPIIAFGTRDSLFPKVVSSIEQVTARKGHPIIICNENDEVWAQKSKSIDLQTLEVPQTVDCLQGLINIIPLQLMSYWLAVNKGIDVDFPRNLAKSVTVE
modifications: GST-His6 tag
notes: as for B1
PI(3,4)P2 liposomes
  PI(3, 4)P2: −8.63
PI(3,4,5)P3 liposomes
  PI(3, 4, 5)P3: −6.53
[1]
  PC: −1.76
PI(4)P liposomes
  PI(4)P: 3.05
PI(4,5)P2 liposomes
  PI(4, 5)P2: −7.62

— patent US20050182242A1, “Global analysis of protein activities using proteome chips” (priority 2001, published 2005)
